The text below walks through data of PMC7615752, “The histone chaperone SPT2 regulates chromatin structure and function in Metazoa”.

The data set deals with T1, HsSPT2 WT (Homo sapiens, UniProt Q68D10 1-685).
T1 sequence: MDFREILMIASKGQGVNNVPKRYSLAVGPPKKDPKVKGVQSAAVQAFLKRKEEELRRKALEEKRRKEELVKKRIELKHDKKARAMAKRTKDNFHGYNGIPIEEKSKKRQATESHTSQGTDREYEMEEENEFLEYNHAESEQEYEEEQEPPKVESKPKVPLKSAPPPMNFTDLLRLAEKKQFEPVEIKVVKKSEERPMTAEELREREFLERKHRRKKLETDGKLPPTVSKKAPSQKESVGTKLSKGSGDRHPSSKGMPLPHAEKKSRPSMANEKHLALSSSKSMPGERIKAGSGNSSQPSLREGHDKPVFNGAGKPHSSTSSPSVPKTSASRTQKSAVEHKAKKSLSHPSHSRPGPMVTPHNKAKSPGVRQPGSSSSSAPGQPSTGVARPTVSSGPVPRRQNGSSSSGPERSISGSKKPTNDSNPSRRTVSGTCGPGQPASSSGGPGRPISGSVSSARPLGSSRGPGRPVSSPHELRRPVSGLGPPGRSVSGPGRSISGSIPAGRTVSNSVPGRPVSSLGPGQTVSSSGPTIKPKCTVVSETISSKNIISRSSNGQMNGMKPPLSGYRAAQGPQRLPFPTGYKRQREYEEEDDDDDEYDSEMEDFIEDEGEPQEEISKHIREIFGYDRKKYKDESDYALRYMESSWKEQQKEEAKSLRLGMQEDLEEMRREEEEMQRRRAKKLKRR
Put plainly: EMSA; 1 mM EDTA; 10 nM DNA; 25 mM Tris-HCl pH 8.0, 55 mM NaCl, 1 mM EDTA, 1 mM DTT, 0.1 mg/ml BSA, 1% glycerol, 37 C 15 min; native 8% PAGE. To be noted: protein: recombinant; tags: His6; label: 5'-32P; four-way junction of 4 x 40 nt strands, each arm 20 bp. In general terms: Mobility shift assays separate free from complexed probe on a gel.

B1: synthetic cruciform DNA (four-way Holliday junction J3b/J3h/J3r/J3x(40)) (structured_DNA)
DNA 1: AGGGATCCGTCCTAGCAAGGGGCTGCTACCGGAAGCTTAC
DNA 2: GTAAGCTTCCGGTAGCAGCCTGAGCGGTGGTTGAATTCAC
DNA 3: GTGAATTCAACCACCGCTCAACTCAACTGCAGTCTAGAAC
DNA 4: GTTCTAGACTGCAGTTGAGTCCTTGCTAGGACGGATCCCT
Consider B1, for which the binding result is given as “binds”.
